Results on two proteins are retold here after article PMC6642173, “Acetylation regulates ribonucleotide reductase activity and cancer cell growth” (Nature Communications, 2019).

The stoichiometry N is the number of molecules, sites or subunits per partner or assembly.

The data set deals with the molecule itself. The experiment in a line: cross-linking; purified recombinant RRM2 proteins cross-linked with 2 mM disuccinimidylsuberate (DSS), SDS-PAGE.

B1: Recombinant His6-tagged WT RRM2 (natural protein, human, UniProt P31350 1-389, looked up)
chain: MLSLRVPLAPITDPQQLQLSPLKGLSLVDKENTPPALSGTRVLASKTARRIFQEPTEPKTKAAAPGVEDEPLLRENPRRFVIFPIEYHDIWQMYKKAEASFWTAEEVDLSKDIQHWESLKPEERYFISHVLAFFAASDGIVNENLVERFSQEVQITEARCFYGFQIAMENIHSEMYSLLIDTYIKDPKEREFLFNAIETMPCVKKKADWALRWIGDKEATYGERVVAFAAVEGIFFSGSFASIFWLKKRGLMPGLTFSNELISRDEGLHCDFACLMFKHLVHKPSEERVREIIINAVRIEQEFLTEALPVKLIGMNCTLMKQYIEFVADRLMLELGFSKVFRVENPFDFMENISLEGKTNFFEKRVGEYQRMGVMSSPTENSFTLDADF
notes: RRM2, human; Purification may be described in the Supplementary Methods; also called recombinant RRM2 WT; source: E. coli, purified
With B1, the “stoichiometry N” value was 2.

B2: Recombinant K95R RRM2 (natural protein, human, UniProt P31350 1-389, looked up)
chain: MLSLRVPLAPITDPQQLQLSPLKGLSLVDKENTPPALSGTRVLASKTARRIFQEPTEPKTKAAAPGVEDEPLLRENPRRFVIFPIEYHDIWQMYRKAEASFWTAEEVDLSKDIQHWESLKPEERYFISHVLAFFAASDGIVNENLVERFSQEVQITEARCFYGFQIAMENIHSEMYSLLIDTYIKDPKEREFLFNAIETMPCVKKKADWALRWIGDKEATYGERVVAFAAVEGIFFSGSFASIFWLKKRGLMPGLTFSNELISRDEGLHCDFACLMFKHLVHKPSEERVREIIINAVRIEQEFLTEALPVKLIGMNCTLMKQYIEFVADRLMLELGFSKVFRVENPFDFMENISLEGKTNFFEKRVGEYQRMGVMSSPTENSFTLDADF
notes: RRM2, human, with K95R; Probably His6-tagged and made in E. coli like the WT and K95Q proteins; source: recombinant, purified
B2: the “stoichiometry N” value came out at 2.
